Test results: paper PMC4475061 (2015)
Changes are numbered by the printed parent chain. Names may count otherwise.

B1: ULK3(MIT)2 V338D (domain or fragment)
chain: GPHMSGESLGRATALVVQAVKKDQEGDSAAALSLYCKALDFFVPALHYEVDAQRKEAIKAKVGQYDSRAEELKAIVSSSNQALLRQGTSARDLLREMARDKPRLLAALEVASAAMAKEEAAGGEQDALDLYQHSLGELLLLLAAEPPGRRRELLHTEVQNLMARAEYLKEQVKMRES
B2: ULK3(MIT)2 M434D (domain or fragment)
chain: B1 chain with D66V, M162D
B3: ULK3(MIT)2 (residues 277–449) (domain or fragment)
chain: B1 chain with D66V

Experiments:
[1] = molecular target: IST1 MIMs peptide (residues 316–366), fluorescently labeled (human, Oregon Green 488 maleimide on the non-native N-terminal cysteine); test: FP
[2] = molecular target: IST1 MIM2 peptide (residues 316–343); test: FP

Binder | Kd [1] | Kd [2]
B1 | 0.32 µM | 
B2 | 24.3 µM | 
B3 |  | > 300 µM
